{"source": "paper PMC11240955", "about": "“Stability Engineering of Recombinant Secretory IgA” (International Journal of Molecular Sciences, 2024)", "binders": {"B1": {"name": "COVA2-15 monomeric IgA2m(1)_D133C (antibody, V domains shown)", "VH": "QVQLLESGGGLVQPGGSLRLSCAASGFTFSSYAMSWVRQAPGKGLEWASAISGSGGSTYYADSVEGRFTISRDNSKNTLYLQMNSLRAEDTAVYYCAKDTGYCGDDCYIKLIRGGPDYWGQGTLVTVSS", "VL": "DIVMTQSPLSLPVTLGQPASISCRSSQSLVYSDGNTFLNWFQQRPGQSPRRLIYQVSNRDSGVPDRFSGSGSGTDFTLKISRVEAEDVGVYYCMQGTHWPRTFGQGTKLEIK", "notes": "no single major 160 kDa peak in SEC; also called COVA2-15 mIgA2m(1)_D133C; mIgA2m(1)_D133C; copies: 2 + 2"}}, "molecular_target": "T1, receptor-binding domain (RBD) of the SARS-CoV-2 spike, R319-F541, with a C-terminal 6xHis-tag (SARS-CoV-2, UniProt P0DTC2)", "T1 construct": "also called RBD-His; not shown: His6, C-terminal, kept", "assay": "ELISA", "details": "both partners purified"}
{"binder": "B1", "values": [{"measurement": "binding result", "result": "binds"}]}
